In test [1] the target is chimeric protein βGal-139S(FM)PPH84 (E. coli; human).
The target in test [2] is chimeric protein βGal-117S4HPPH34 (E. coli; human).

Bounds are passed on as bounds.

Kex2-660 (enzyme): the recovery rate of hPTH(1-84) excised from the chimeric protein (HPLC) in test [1] is 75%. In test [2], this substance returned an excision efficiency of hPTH(1-34) from the chimeric protein greater than 90%.

The record behind these values is patent US5885821.
